In the series the test system is AgrA L171A (Staphylococcus aureus SH1000). As to the kind of experiment: EMSA. Particulars: EMSA: 10 mM HEPES pH 7.6, 50 mM KCl, 1 mM EDTA, 2 mM DTT, 0.5% Triton X-100, 5% glycerol, 37 C; 1 uM AgrA (pre-incubated at 3 uM with 50 mM acetyl phosphate …). (In general: A gel shift assay detects complexes by their altered migration in electrophoresis.)

The text below walks through data of article PMC4227749.

Turning to “agr operon intergenic region P2-P3 probe”, the binding signal (% of wild-type binding) stood at 50.
